Reference: PMC7378552, “Impact of the nisin modification machinery on the transport kinetics of NisT” (Scientific Reports, 2020)

T1: NisT (10HNisT) (Lactococcus lactis, UniProt Q03203)
T1 construct: full length, N-terminal deca-His tag with linker (tag kept), homologous expression in L. lactis NZ9000, solubilised in Fos-choline-16, assayed in CYMAL5
T1 sequence (Q03203 1-600): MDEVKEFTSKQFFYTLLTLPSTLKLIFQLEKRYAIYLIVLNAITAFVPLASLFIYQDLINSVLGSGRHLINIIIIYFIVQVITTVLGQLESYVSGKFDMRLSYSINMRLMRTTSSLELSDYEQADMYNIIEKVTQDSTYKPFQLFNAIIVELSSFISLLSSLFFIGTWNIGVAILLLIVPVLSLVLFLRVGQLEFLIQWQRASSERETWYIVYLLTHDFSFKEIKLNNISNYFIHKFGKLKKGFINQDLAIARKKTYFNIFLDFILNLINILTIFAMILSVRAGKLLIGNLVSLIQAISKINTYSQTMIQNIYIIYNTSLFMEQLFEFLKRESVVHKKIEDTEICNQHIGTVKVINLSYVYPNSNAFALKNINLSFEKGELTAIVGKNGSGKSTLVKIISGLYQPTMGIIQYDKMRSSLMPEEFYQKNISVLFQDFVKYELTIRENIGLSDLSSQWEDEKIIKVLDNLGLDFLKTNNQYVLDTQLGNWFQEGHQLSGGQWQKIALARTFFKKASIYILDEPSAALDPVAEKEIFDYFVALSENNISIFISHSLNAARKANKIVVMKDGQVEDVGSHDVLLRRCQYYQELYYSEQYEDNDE

T2: NisB (dehydratase of nisin precursor peptide) (Lactococcus lactis, UniProt P20103 1-993)
T2 construct: NisB, nisin dehydratase of Lactococcus lactis; NisB alone was not held on Ni-NTA beads, so it probably bore no His tag in the assay; source: purified
T2 sequence (looked up): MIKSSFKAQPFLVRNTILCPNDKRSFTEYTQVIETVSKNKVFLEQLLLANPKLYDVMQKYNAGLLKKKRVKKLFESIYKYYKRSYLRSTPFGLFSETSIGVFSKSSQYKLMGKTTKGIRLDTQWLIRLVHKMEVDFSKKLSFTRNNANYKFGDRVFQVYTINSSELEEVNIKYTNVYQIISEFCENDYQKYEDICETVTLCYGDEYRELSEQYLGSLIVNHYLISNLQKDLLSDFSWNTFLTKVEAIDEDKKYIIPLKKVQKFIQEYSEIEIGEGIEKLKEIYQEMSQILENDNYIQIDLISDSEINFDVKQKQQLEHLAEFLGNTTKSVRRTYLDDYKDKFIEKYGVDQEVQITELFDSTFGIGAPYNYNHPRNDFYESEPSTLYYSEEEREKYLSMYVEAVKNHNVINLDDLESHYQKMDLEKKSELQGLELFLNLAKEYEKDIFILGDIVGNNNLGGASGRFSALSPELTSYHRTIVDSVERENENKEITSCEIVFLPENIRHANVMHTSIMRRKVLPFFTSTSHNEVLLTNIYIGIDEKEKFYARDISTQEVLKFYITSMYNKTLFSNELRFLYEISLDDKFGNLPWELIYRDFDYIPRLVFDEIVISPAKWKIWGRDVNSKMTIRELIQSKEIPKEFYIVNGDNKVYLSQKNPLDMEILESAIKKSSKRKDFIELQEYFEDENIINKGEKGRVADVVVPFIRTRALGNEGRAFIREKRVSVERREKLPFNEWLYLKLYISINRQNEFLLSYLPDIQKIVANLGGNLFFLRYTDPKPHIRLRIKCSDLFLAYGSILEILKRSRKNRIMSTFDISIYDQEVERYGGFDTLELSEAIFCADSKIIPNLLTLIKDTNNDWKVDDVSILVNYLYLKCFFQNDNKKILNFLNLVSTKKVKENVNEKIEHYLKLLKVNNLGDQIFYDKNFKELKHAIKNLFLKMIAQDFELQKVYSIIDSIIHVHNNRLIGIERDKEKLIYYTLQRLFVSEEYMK

B1: 10HNisT (deca-histidine tagged NisT, ABC transporter of the nisin precursor peptide) (natural protein, Lactococcus lactis, UniProt Q03203 1-600, looked up)
chain: T1 sequence (Q03203 1-600)
notes: NisT, lanthipeptide ABC transporter of Lactococcus lactis; nisT gene amplified from genomic DNA of L. lactis NZ97000 and inserted into pNZ-SV10H; TMD is residues 1-347, the NBD begins at H348; Used in detergent (CYMAL5) in the pull-down; also called WT; source: L. lactis NZ9000 (pNZ-SV10HnisT), membranes solubilised with FC-16, purified (IMAC, SEC); not shown: His10 (deca-histidine), N-terminal, …
B2: NisC (cyclase of nisin precursor peptide) (enzyme, Lactococcus lactis, UniProt Q03202 1-418, looked up)
chain: MRIMMNKKNIKRNVEKIIAQWDERTRKNKENFDFGELTLSTGLPGIILMLAELKNKDNSKIYQKKIDNYIEYIVSKLSTYGLLTGSLYSGAAGIALSILHLREDDEKYKNLLDSLNRYIEYFVREKIEGFNLENITPPDYDVIEGLSGILSYLLLINDEQYDDLKILIINFLSNLTKENNGLISLYIKSENQMSQSESEMYPLGCLNMGLAHGLAGVGCILAYAHIKGYSNEASLSALQKIIFIYEKFELERKKQFLWKDGLVADELKKEKVIREASFIRDAWCYGGPGISLLYLYGGLALDNDYFVDKAEKILESAMQRKLGIDSYMICHGYSGLIEICSLFKRLLNTKKFDSYMEEFNVNSEQILEEYGDESGTGFLEGISGCILVLSKFEYSINFTYWRQALLLFDDFLKGGKRK
notes: NisC, nisin cyclase of Lactococcus lactis; NisC alone was not held on Ni-NTA beads, so it probably bore no His tag in the assay; source: purified

How the values were obtained:
NisT (10HNisT) = target: T1, NisT (10HNisT); assay: malachite green phosphate release assay, Michaelis-Menten fit; assay type: biochemical; settings: basal ATPase, no peptide substrate; 1 µM NisT, ATP 0-5 mM, 10 mM MgCl2, 0.4% CYMAL5, 30 °C, 30 min
[1] = target: T2, NisB (dehydratase of nisin precursor …); assay: pull-down; 10HNisT (~15 ug) immobilised on Ni-NTA magnetic beads; 10 uM NisB, NisC or NisBC added without substrate; activity assay buffer with 0.4% CYMAL5, 400 mM glutamate, 5 mM MgATP; 1 h at 30 C; six washes, elution with 50 mM EDTA; Western blot; settings: both partners purified
[2] = target: B1; assay: as above; settings: both partners purified

## Nc1ncnc2c1ncn2[C@@H]1O[C@H](COP(=O)(O)OP(=O)(O)OP(=O)(O)O)[C@@H](O)[C@H]1O [ATP]
NisT (10HNisT)
  Km: 370 ± 40 µM

## B1
[1]
  binding result: binds

## B2
[2]
  binding result: binds
